This assay deals with T1, Signal peptide peptidase (human (endogenous in HEK293)), Q8TCT9.
T1 chain: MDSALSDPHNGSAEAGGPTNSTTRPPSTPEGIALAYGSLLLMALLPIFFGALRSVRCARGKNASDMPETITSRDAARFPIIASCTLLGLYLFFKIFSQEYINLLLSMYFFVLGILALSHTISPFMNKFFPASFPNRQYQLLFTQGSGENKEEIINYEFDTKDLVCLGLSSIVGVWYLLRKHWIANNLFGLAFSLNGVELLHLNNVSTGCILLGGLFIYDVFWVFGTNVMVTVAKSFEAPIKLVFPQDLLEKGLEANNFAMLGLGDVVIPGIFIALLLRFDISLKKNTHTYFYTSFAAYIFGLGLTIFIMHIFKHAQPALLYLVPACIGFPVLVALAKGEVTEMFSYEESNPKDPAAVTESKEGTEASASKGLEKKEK
Kind of assay: native gel or EMSA; BN-PAGE of HEK293 or HEK293 vigilin-FLAG lysates solubilized in 0.5% DDM, Western blot for SPP and vigilin (or FLAG); second dimension SDS-PAGE for SPP. The settings on record: remark: other sources report otherwise.

For orientation: stoichiometry N means a count of units in the complex or per binding partner.

B1: Signal peptide peptidase, Q8TCT9 1-377 (natural protein)
chain: T1 chain
In the case of B1, the stoichiometry N stood at 2.

(Values after PMC3490818.)
